Measured values from the nanobody polyreactivity screen of Harvey et al. (2022).

Experiment: yeast display, Sf9 membrane polyspecificity reagent, FACS + sequencing; frameworks hold sequencing errors
Outline: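 Galactose induction of a Saccharomyces cerevisiae BJ5465 synthetic nanobody display library ran 36–48 hours. The cells were then stained for 1 hour at 4 °C with 10% biotinylated, detergent-solubilized Sf9 membrane reagent, pulled down on streptavidin microbeads and FACS-sorted into low and high (top ~1%) gates on expression and reagent-binding fluorescence. Labels for polyreactivity follow the gate of origin.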

Row | Sequence | polyreactivity (PSR sort gate)
1 | QVQLVESGGGLVQAGGSLRLSCAASGRIFDENAMGWYRQAPGKERELVATISSSGVSTSYADSVKGRFTISRDNAKNTVYLQMNSLKPEDTAVYYCNAGYRRRYKFDYWGQGTQVTVSS | low polyreactivity
2 | QVQLVESGGGLVQAGGSLRLSCAASGRIFDENAMGWYRQAPGKERELVATISSSGVSTSYADSVKGRFTISRDNAKNTVYLQMNSLKPEDTAVYYCNAGYRRRYKFVYWGQGTQVTVSS | low polyreactivity
3 | QVQLVESGGGLVQAGGSLRLSCAASGRIFDGNAMGWYRQAPGKERELVAAISWTGGSTYYADSVKGRFTISRDNAKNTVYLQMNSLKPEDTAVYYCAADSGWWLDQWSWYDYWGQGTQVTVSS | low polyreactivity
4 | QVQLVESGGGLVQAGGSLRLSCAASGRIFDGNTMGWYRQAPGKERELVAAISGGGSTDYADSVKGRFTISRDNAKNTVYLQMNSLKPEDTAVYYCAATTGPVPLKGDYWGQGTQVTVSS | low polyreactivity
5 | QVQLVESGGGLVQAGGSLRLSCAASGRIFDGYDMGGYRQAPGQEREWVAAITSVGSTNYADSVKGRFTISRDNAKNTVYLQMNSLKPDDTAVYYCAAVLYVFYDDYGYWEYFSQYDYWGQGTQVTVSS | low polyreactivity
6 | QVQLVESGGGLVQAGGSLRLSCAASGRIFDKYTMGWYRQAPGKERELVATMTRGGVSTYYADSVKGRFTISRDNAKNTVYLQMNSLKPEDTAVYYCNAVWRLRVRYGYWGQGTHVTVSS | high polyreactivity
7 | QVQLVESGGGLVQAGGSLRLSCAASGRIFDKYTMGWYRQAPWKERELVPAISKSGSGTFYADSVKGRFTISRDNAKNTVYLQMNSLKPEDTAVYYCARVYTVGSGRSWRLDYWGQGTQVTVSS | high polyreactivity
8 | QVQLVESGGGLVQAGGSLRLSCAASGRIFDLNAMGWYRPAPGKERELVAAITNTGSTNYADSVKGRFTISRDNAKNTVYLQMNSLKPEDTAVYYCARTYWLRYYGYRDDEYDYWGQGTQVTVSS | low polyreactivity
9 | QVQLVESGGGLVQAGGSLRLSCAASGRIFDLNAMGWYRQAPGKERELVAAITFSGGDTYADSVKGRFTISRDNAKNTVYLEMYSLKPEDTAVYYCAKDHYGDDTYGTPYDYDYWGQGTQVTVSS | low polyreactivity
10 | QVQLVESGGGLVQAGGSLRLSCAASGRIFDLNAMGWYRQAPGKERELVADINSGGSTYYADSVKGRFTISRDNAKNTVYLQMNSLKPEDTAVYYCAVRRNQHVVQMYYWGQGTQVTVSS | low polyreactivity
11 | QVQLVESGGGLVQAGGSLRLSCAASGRIFDLNVMGWYRQAPGKERELVAAIRSGGRTNYADSVKGRFTISRDNAKNTVYLQMNSLKPEDTAVYYCNVRRGYWHPRYGWANYDYWGQGTQVTVSS | high polyreactivity
12 | QVQLVESGGGLVQAGGSLRLSCAASGRIFDLYAMGWYRQAPGKERELVATISGSGGSTYYADSVKGRFTISRDNAKNTVYLQMNSLKPEDTAVFYCAAVSVSSWYDYWGLGTQVTVSS | low polyreactivity
13 | QVQLVESGGGLVQAGGSLRLSCAASGRIFDLYTMGWYRQAPGKERELVAAIRWSDGSTYYADSVKGRFTISRDNAKNTVYLQMNSLKPEDTAVYYCAADSRTSYYNDDYDYWGQGTQVTVSS | low polyreactivity
14 | QVQLVESGGGLVQAGGSLRLSCAASGRIFDLYTMGWYRQAPGKERELVAAIRWSDGSTYYADSVKGRFTISRDNAKNTVYLQMNSLKPEDTAVYYCNRDPPRVLWYYLLSDSKLDSWGQGTQVTVSS | low polyreactivity
15 | QVQLVESGGGLVQAGGSLRLSCAASGRIFDNNAMGWYRQAPGKERELVAAIDWRGGSTDYADSVKGRFTISRDNAKNNVYLHMNSLKQEDTAVYYCVAGHVRYWHGYSYDYWGQGTQVTVSS | low polyreactivity
16 | QVQLVESGGGLVQAGGSLRLSCAASGRIFDPYAMGWYRQAPGKERELVASISWSGGRTYYADSVKGRFTISRDNAKNTVYLQMNSLKPEDTAVYYCARDYGQYGWYRYGRTYDHWGQGTQVTVSS | high polyreactivity
17 | QVQLVESGGGLVQAGGSLRLSCAASGRIFDQYALGWYRQAPRKESELVAFINRGGSTNYADSVKGRFTISRDNAKNTVYLQMNSLKPEDTEVYYCAADGDYYVESQTGHTYYYWGQGTQVTVSS | low polyreactivity
18 | QVQLVESGGGLVQAGGSLRLSCAASGRIFDQYTMGWYRQAPGKERELVAAIRWSDGSTYYADSVKGRFTISRDNAKNTVYLQMNSLKPEDTAVYYCAADTRTSYYNDDYDYWGQGTQVTVSS | low polyreactivity
19 | QVQLVESGGGLVQAGGSLRLSCAASGRIFDRNAMGWYRQAPGKERELVAAISSRGTSTYYADSVKGRFTISRDNAKNTVYLQMNSLKPEDTAVYYCAARPRYASDEFGYWGQGTQVTVSS | low polyreactivity
20 | QVQLVESGGGLVQAGGSLRLSCAASGRIFDRNAMGWYRQAPGKERELVARIDPGDDTNYADSVKGRFTISRDNAKNTVYLQMNSLKAEDTAVYYCATDPDYVLYRTAYYEYDYWGQGTQVTVSS | low polyreactivity
21 | QVQLVESGGGLVQAGGSLRLSCAASGRIFDSYAMGWYRQAPGKERELVAVISNNDGTTYYADSVKGRFTISRDNAKTTVYLQMNSLKPEDTAVYYCNAVYSSGVDGSEGFDYWGQGTQVTVSS | low polyreactivity
22 | QVQLVESGGGLVQAGGSLRLSCAASGRIFDTNAMGWYRQAPGKERELVAAITYSGGSTYYADSVKGRFTISRDNAKNTVYLQMNSLKPEDTAVYYCAAGPYDPRYDYWGQGTQVTVSS | high polyreactivity

Row | Sequence | polyreactivity (PSR sort gate)
23 | QVQLVESGGGLVQAGGSLRLSCAASGRIFDTNVMGWYRQAPGKERELVAALSYSGGSTYYADSVKGRFTISRDNAKNTVYLQMNSLKPEDTAVYYCAAQYWQGDYDYRGQGTQVTVSS | high polyreactivity
24 | QVQLVESGGGLVQAGGSLRLSCAASGRIFDVYAKGWYRQAPGKERELFAAISKSDGRTYYADSVKGRFTISRDNAKNTVYLQMNSLKPEDTAVYYCNVRAYGARAGTKMYYWGQGTQVNVSS | low polyreactivity
25 | QVQLVESGGGLVQAGGSLRLSCAASGRIFDVYAMGWYRQAPGKERELVATITGSGGGTYYADSVKGRFTISRDNAKNTVYLQMNSLKPEDSEVYYCASYYYPNYAYYVSNVVYDYWVQGTQVTVSS | low polyreactivity
26 | QVQLVESGGGLVQAGGSLRLSCAASGRIFDWNAMGWYRQAPGKERELVAAISYSDGSTYYADSVKGRFTISRDNAKNTVYLQMNSLKREDTAVYYCDADFYDRTYITWYEYWGQGTQVTVSS | high polyreactivity
27 | QVQLVESGGGLVQAGGSLRLSCAASGRIFDWNTMGRYRQAPGKERELVAAISYEGSTYYADSVKGRFTISRDNAKNTVYLQMNSLKPEDTAVFYCNAYPLTQYFAQGYDYWGQGTQVTVSS | low polyreactivity
28 | QVQLVESGGGLVQAGGSLRLSCAASGRIFDYNAMGWYRQVPGKERELVAAITKDDGSTYYADSVKGRFTISRDNAKNTVYLQMTSLKPEDTAVYYCAADFYWTYVDIWYDYWGHGTQVTVSS | low polyreactivity
29 | QVQLVESGGGLVQAGGSLRLSCAASGRIFDYYAMGWYRPAPGKERELVAAITSGGTTTYYADSVKGRFTISRDNAKNTVYVQMNSLKPEDTAVYYCAKYPYHIYHTDGDYWGQGTQVTVSS | low polyreactivity
30 | QVQLVESGGGLVQAGGSLRLSCAASGRIFDYYAMGWYRQAPGKERELVAAIDWRGDRTYYADSVKGRFTISRDNAKNTVYLQMNSLKPEDTAVYYCNVLDTRQVGGYRFDYWGQGTQVTVSS | low polyreactivity
31 | QVQLVESGGGLVQAGGSLRLSCAASGRIFDYYAMGWYRQAPGKERELVAAISSSVGNTYYADSVKGRFTISRDNAKNTVYLQMNSLKPEDTAVYYCADYSYVRSSYEVEYDYWGQGTQVTVSS | low polyreactivity
32 | QVQLVESGGGLVQAGGSLRLSCAASGRIFDYYAMGWYRQAPGKERELVASISRSGGSTYYADSVKGRFTISRDNAKNTVYLQMNSLKPEDTAVYYCAAVRYITKEFYWGQGTQVTVSS | high polyreactivity
33 | QVQLVESGGGLVQAGGSLRLSCAASGRIFDYYAMGWYRQAPGKERELVAVINRDGSTYYADSVKGRFTISRDNAKNTVYLQMNSLKPEDTAVYYCARDSAWAARGPFTDGAYDSWGQGTQVTVSS | low polyreactivity
34 | QVQLVESGGGLVQAGGSLRLSCAASGRIFDYYAMGWYRQAPGKERELVAVISRGGRTKYADSVKGRFTISRDNAKNTVYLQMNSLKPEDTAVFYCAAYPSYYGDSGLRYDYWGQGTQVTVSS | high polyreactivity
35 | QVQLVESGGGLVQAGGSLRLSCAASGRIFDYYGMGWYRHAPGKERELVAAITSSGSRTYYADSVKGRFTISRDNAKNTVYLQMNSLKPEDTAVYYCARGGGRRKGLVDYWGQGTQVTVSS | low polyreactivity
36 | QVQLVESGGGLVQAGGSLRLSCAASGRIFDYYTMGWYRQAPGKESELVAAITKSGGSTYYADSVKGRFTISRDNAKNTVFLLMNILKPEDTAVYYCAAVTYDYYWFGDIEDDFWGQGTQVTVSS | low polyreactivity
37 | QVQLVESGGGLVQAGGSLRLSCAASGRIFEHYAMGWYRQAPGKERELVATISSGGSTYYADSVKGRFTISRDNAKNTVYLQMNSLKPEDTAVYYCAAERFWPYKSYYWGQGTQVTVSS | low polyreactivity
38 | QVQLVESGGGLVQAGGSLRLSCAASGRIFELNARGWYSQAPGKERELVAVISSGGNTHYADSVKGRFTISRDNAKNTVYLQMNSLNPEDTAVYYCAAVASKHWGRDYWGQGTQVTVSS | low polyreactivity
39 | QVQLVESGGGLVQAGGSLRLSCAASGRIFEPYAMGWYRQAPGNERELVAAINSGGSTNYADSVKGRFTISRDNAKNTVYLQMNSLKPEDTAVYYCAASVYGQHAGPGRWYTFYYWGQGTQVTVSS | low polyreactivity
40 | QVQLVESGGGLVQAGGSLRLSCAASGRIFESKAMGWYRQAPGKERELVAAISVNGASTSYADSVKGRFTISRDNAKNTVYLQMNSLKPEDTAVYYCAARRGKGYYYWGQGTQVTVSS | high polyreactivity
41 | QVQLVESGGGLVQAGGSLRLSCAASGRIFEVNVMGWYRQAPGKERELVAAITTGGGSTYYADSVKGRFTISRDNAKNTVYLQMNSLKPEDTAVYYCAAEPILIDEYWGQGTQVTVSS | low polyreactivity
42 | QVQLVESGGGLVQAGGSLRLSCAASGRIFEVYDMGWYRKAPGKERELVAAISESDDNTYYADSVKGRFTISRDNAKNTVYLQMNSLKPEDTAVYYCNADVPGDTGWWGFDYWGQGTQVTVSS | low polyreactivity
43 | QVQLVESGGGLVQAGGSLRLSCAASGRIFFANAMGWYRQAPGKERELVATITSGESTNYADSVKGRFTISRDNAKNTVYFEMNSLKPEDTAVYYCAADYYWYSPGAYSYAGYDYWGQGTQVTVSS | low polyreactivity
